B1: synthetic antibody fragment (sAB) M1 (Fab, V domains shown)
VH: EVQLVESGGGLVQPGGSLRLSCAASGFNFSSSSIHWVRQAPGKGLEWVASISPSYGYTYYADSVKGRFTISADTSKNTAYLQMNSLRAEDTAVYYCARGIWSYWYMVYPHDNYGMDYWGQGTLVTVSS
VL: DIQMTQSPSSLSASVGDRVTITCRASQSVSSAVAWYQQKPGKAPKLLIYSASSLYSGVPSRFSGSRSGTDFTLTISSLQPEDFATYYCQQSSSRPVTFGQGTKVEIK
B2: Mj0480, archaeal DUF106 protein from Methanocaldococcus jannaschii (natural protein, UniProt Q57904 1-198, looked up)
chain: MFGSIFDIYYKTLDAIFMPIIKVLHPALAILIIAIIVSLIINIATKLLVDQKRVAELKKEIQEFQVKFKKMSKNPEMMEKLQEEQQRIMQLNAELMKMSFRPMIYTWVPIILIFIYLRHVYGFGGVYQELNPGWNGVVVYLPIILSKILFIDFWHWLGSIFYKGGFKIVSNTALGWLGWYILCSFATSTVLRKILGIK

What was measured:
[1] = molecular target: Mj0480, archaeal DUF106 protein from Methanocaldococcus jannaschii (Methanocaldococcus jannaschii, UniProt Q57904); assay: SEC
crystal structure = molecular target: the molecule itself; assay: crystal structure

Binder | stoichiometry N [1] | binding result (crystal structure)
B1 | 1 | –
B2 | – | binds

Reference: PMC4558205 (Structure (London, England : 1993), 2015)
